In article PMC9032424 (PLoS ONE, 2022):
Positions count from the first letter of the chain named. Names may count otherwise.

T1: HisH (glutaminase subunit of Imidazole Glycerol Phosphate Synthase) from Thermotoga maritima (Thermotoga maritima, UniProt Q9X0C8 1-201)
T1 construct: HisH, Thermotoga maritima; cloned NdeI/XhoI into pET28a; No removal of the His-tag is described; source: bacteria transformed with pET28a, purified (70°C heat step, Ni-NTA agarose)
T1 sequence: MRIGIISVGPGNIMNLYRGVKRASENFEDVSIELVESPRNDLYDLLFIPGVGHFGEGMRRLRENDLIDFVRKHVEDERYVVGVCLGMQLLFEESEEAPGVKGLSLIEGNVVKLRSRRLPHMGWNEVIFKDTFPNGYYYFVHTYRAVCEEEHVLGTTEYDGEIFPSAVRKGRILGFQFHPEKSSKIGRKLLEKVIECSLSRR

B1: HisF E167A (enzyme, Thermotoga maritima)
chain: MLAKRIIACLDVKDGRVVKGTNFENLRDSGDPVELGKFYSEIGIDELVFLDITASVEKRKTMLELVEKVAEQIDIPFTVGGGIHDFETASELILRGADKVSINTAAVENPSLITQIAQTFGSQAVVVAIDAKRVDGEFMVFTYSGKKNTGILLRDWVVEVEKRGAGAILLTSIDRDGTKSGYDTEMIRFVRPLTTLPIIASGGAGKMEHFLEAFLAGADAALAASVFHFREIDVRELKEYLKKHGVNVRLEGL
notes: HisF, Thermotoga maritima, with the single mutation E167A; parent is the HisF of m1; probably as the His-tagged wild-type HisF; also called mutant HisF
B2: HisF K13A (enzyme, Thermotoga maritima)
chain: B1 chain with K13A, A167E
notes: HisF, Thermotoga maritima, with the single mutation K13A; parent is the HisF of m1; probably as the His-tagged wild-type HisF; also called mutant HisF
B3: HisF L169A (enzyme, Thermotoga maritima)
chain: B1 chain with A167E, L169A
notes: HisF, Thermotoga maritima, with the single mutation L169A; parent is the HisF of m1; probably as the His-tagged wild-type HisF; also called mutant HisF
B4: HisF F210A (enzyme, Thermotoga maritima)
chain: B1 chain with A167E, F210A
notes: HisF, Thermotoga maritima, with the single mutation F210A; parent is the HisF of m1; probably as the His-tagged wild-type HisF; also called mutant HisF

target: T1, HisH (glutaminase subunit of Imidazole …); assay: other fluorescence titration; intrinsic tryptophan fluorescence; 15 uM HisH mixed with sub-stoichiometric HisF (1 to 5 uM); 20 mM potassium phosphate pH 7.5; excitation 295 nm, difference spectra read at 321 nm; fluorescence as proxy of concentrations; 30°C; conditions: both partners purified

Row | fold increase of Kd against wild-type HisF [fold] | Binder
1 | 10 | B1
2 | ~3 | B2
3 | ~3 | B3
4 | ~3 | B4
